Patent US20210087291A1 (Hoffmann-La Roche, published 2021)
Changes are numbered by the printed parent chain. Where two headings read alike, the source gives them in different places.

How the values were obtained:
[1] = target: T1, human FolR1 ECD-AcTev-Fcknob-Avi tag + Fc hole, biotinylated monomeric Fc fusion (human, UniProt P0DOX5 223-449 = IgG part); test: SPR ProteOn, Fab analyte
T1 construct: also called huFolR1; huFolR1-Fc
Procedure: (§1) Immobilization of antigens (ligand): Recombinant antigens were diluted with PBST (10 mM phosphate, 150 mM sodium chloride pH 7.4, 0.005% Tween 20) to 10 μg/ml, then injected at 30 μl/minute in vertical orientation. Injection of analytes: For ‘one-shot kinetics’ measurements, injection direction was changed to horizontal orientation, two-fold dilution series of purified Fab (varying concentration ranges) were injected simultaneously along separate channels 1-5, with association times of 150 or 200 s, and dissociation times of 200 or 600 s, respectively. Buffer (PBST) was injected along the sixth channel to provide an “in-line” blank for referencing. Association rate constants (kₒₙ) and dissociation rate constants (koff) were calculated using a simple one-to-one Langmuir binding model in ProteOn Manager v3.1 software by simultaneously fitting the association and dissociation sensorgrams. The equilibrium dissociation constant (KD) was calculated as the ratio koff/kₒₙ.

[2] = target: T2, murine FolR1 ECD-AcTev-Fcknob-Avitag + Fc hole, biotinylated monomeric Fc fusion (murine, UniProt P0DOX5 223-449 = IgG part); test: SPR ProteOn, Fab analyte
T2 construct: also called muFolR1; murine FolR1-Fc
Procedure: as §1

[3] = target: T3, cynomolgus FolR1 ECD-AcTev-Fcknob-Avi tag + Fc hole, biotinylated monomeric Fc fusion (cynomolgus, UniProt P0DOX5 223-449 = IgG part); test: SPR ProteOn, Fab analyte
T3 construct: also called cyFolR1; cyno FolR1-Fc
Procedure: as §1

[4] = target: T4, human FolR3 ECD-AcTev-Fcknob-Avi tag + Fc hole, biotinylated monomeric Fc fusion (human, UniProt P0DOX5 223-449 = IgG part); test: SPR ProteOn, Fab analyte
T4 construct: also called huFolR3; FolR3-Fc
Procedure: as §1

[5] = target: T5, human FolR2 ECD-AcTev-Fcknob-Avi tag + Fc hole, biotinylated monomeric Fc fusion (human, UniProt P0DOX5 223-449 = IgG part); test: SPR ProteOn, Fab analyte
T5 construct: also called huFolR2; FolR2-Fc
Procedure: as §1

[6] = target: T6, human FolR2 on transiently transfected HEK cells (human, UniProt P14207 17-230); test: flow cytometry on HEK cells transiently transfected with human FolR2, anti-human secondary antibody; concentration not given
human FolR1 on cells [7] = target: T7, human FolR1 on cells (human, UniProt P15328 25-234); test: flow cytometry on HeLa cells (human FolR1), fluorescently labeled anti-human secondary antibody
T7 construct: also called FolR1 on HeLa, SKOV3, HT-29 tumor cells; HEK cells transfected with human FolR1
Procedure: (§2) Binding of newly generated FolR1 binders to FolR1 expressed on HeLa cells were determined by flow cytometry. Bound antibodies were detected with a fluorescently labeled anti-human secondary antibody.
(§3) The identified binders were converted into a human IgG1 format and binding to FolR1 high expressing HeLa cells was addressed.

[8] = target: T8, cynomolgus FolR1 on transiently transfected HEK cells (cynomolgus, UniProt P15328 25-234 (human entry)); test: flow cytometry on HEK cells transiently transfected with cyno FolR1, anti-human secondary antibody
T8 construct: also called cyno FolR1; cyFoLR1
Source text: Cross-reactivity of the FolR1 antibodies to cyno FolR1 was addressed on HEK cells transiently transfected with cyFolR1 by flow cytometry. The antibodies were detected with a fluorescently labeled anti-human secondary antibody.
In parallel cross-reactivity of the FolR1 clones to cyno FolR1 was addressed by performing binding studies to HEK cells transiently transfected with cyno FolR1.

[9] = target: T2, murine FolR1 ECD-AcTev-Fcknob-Avitag + …; test: SPR, IgG single injection
[10] = target: T4, human FolR3 ECD-AcTev-Fcknob-Avi tag + …; test: SPR, IgG single injection
[11] = target: T5, human FolR2 ECD-AcTev-Fcknob-Avi tag + …; test: SPR, IgG single injection
[12] = target: T1, human FolR1 ECD-AcTev-Fcknob-Avi tag + …; test: SPR, IgG single injection
[13] = target: T3, cynomolgus FolR1 ECD-AcTev-Fcknob-Avi …; test: SPR, IgG single injection
monomeric human Tim3-ECD [14] = target: T9, monomeric human Tim3-ECD (human, UniProt Q8TDQ0 22-202); test: SPR Biacore, monovalent Tim3
T9 construct: also called huTim3
Procedure: (§4) Therefore, an anti-mouse IgG was immobilized by amine coupling to the surface of a (Biacore) CM5 sensor chip. The samples were then captured and hu/cy Tim3-ECD was bound to them. The sensor chip surface was regenerated after each analysis cycle. The equilibrium constant KD was finally gained by fitting the data to a 1:1 langmuir interaction model.
(§5) Flow cell temperature was set to 25° C. and sample compartment temperature to 12° C. The system was primed with running buffer. The samples were injected for 30 seconds with a concentration of 200 μg/ml and bound to the spots 1 and 5 of each flow cell, allowing the measurement of eight samples in parallel. Then a complete set of different (monomeric cyno, monomeric human and huFc fused dimeric human Tim3-ECD) concentrations (s. Table X) was injected over each sample for 240 s followed by a dissociation time of 30/1800 s (s. Table 1). Each analysis cycle (sample capture, spot 1 and 5—Tim3 ECD injection) was then regenerated with a 30 seconds long injection of Glycine-HCl pH 1.7. The flow rate was set to 30 μl/min for the whole run. Finally, the double referenced data was fitted to a 1:1 langmuir interaction model with the Biacore B4000 Evaluation Software.

[15] = target: T10, cynomolgus TIM-3 on isolated cyno CD14+ monocytes (cynomolgus); test: flow cytometry, cyno CD14+ monocytes cyno3
T10 construct: whole, on cells
Source text: (§6) CD14+ Monocytes were isolated from cynomolgus monkey anticoagulated peripheral blood (Covance) by density gradient centrifugation using Ficoll-Paque (GE Healthcare) (see General Protocols in the User Manuals or visit www.miltenyibiotec.com/protocols) and subsequent positive selection via NHP CD14 MicroBeads. First the CD14+ cells are magnetically labeled with CD14 MicroBeads. Then the cell suspension is loaded onto a MACS® Column which is placed in the magnetic field of a MACS Separator. The magnetically labeled CD14+ cells are retained in the column. The unlabeled cells run through, this cell fraction is depleted of CD14+ cells. After removal of the column from the magnetic field, the magnetically retained CD14+ cells can be eluted as the positively selected cell fraction. After centrifugation at 200×g for 10 min at room temperature the monocytes were harvested and used directly in binding assay or resuspended in freezing medium (10% DMSO, 90% FCS) at 1.0E+07 cells/ml and stored in liquid nitrogen.
(§7) 1×10⁵ CD14+ isolated cyno monocytes (50 μl/well) were put into 98 well-v bottom MTP in fresh culture medium and incubated with Redimune® NF Liquid for 15 min at RT to block unspecific binding. Than 50 μl/well of Alexa488 labeled anti-TIM3 (10 μg/ml in cell culture medium) were added and incubated for 1 h at 4° C. After washing and centrifugation MFI signals of stained cells were analyzed by BD Biosciences FACSCanto flow cytometer.

human TIM-3 on cells [16] = target: T11, human TIM-3 on cells (human, UniProt Q8TDQ0 22-301); test: cell ELISA, CHO-K1 expressing human Tim3
T11 construct: also called CHO-Tim3; rec CHOK1 cells expressing huTIM-3
Procedure: Then the reaction was stopped by addition of 25 μl/well 1N HCL-solution.

Tim3-ECD-His-Biotin = target: T12, Tim3-ECD-His-Biotin (human, UniProt Q8TDQ0 22-202); test: ELISA on Tim3-ECD-His-Biotin
T12 construct: also called human Tim3 (ELISA); Biochem Human
Procedure: After washing (3×90 μl/well with PBST-buffer) 25 μl aTim3 samples or diluted (1:2 steps) reference antibody aTim3 F38-2E2 (Biolegend) was added and incubated 1 h at RT. After washing (3×90 μl/well with PBST-buffer) 25 μl/well sheep-anti-mouse-POD (GE NA9310V) was added in 1:9000 dilution and incubated at RT for 1 h while shaking at 400 rpm rotation. After washing (4×90 μl/well with PBST-buffer) 25 μl/well TMB substrate (Calbiochem, #CL07) was added and incubated until OD 1.5-2.5. Then the reaction was stopped by addition of 25 μl/well 1N HCL-solution.

human TIM-3 on cells [17] = target: T11, human TIM-3 on cells; test: cell-based or functional assay
human TIM-3 on cells [18] = target: T11, human TIM-3 on cells; test: flow cytometry, human CD14+ monocytes donor2
Source text: (§8) CD14+ Monocytes were isolated from anticoagulated peripheral blood of healthy donors by density gradient centrifugation using Ficoll-Paque (GE Healthcare) (see General Protocols in the User Manuals or visit www.miltenyibiotec.com/protocols) and subsequent positive selection via CD14 MicroBeads. First the CD14+ cells are magnetically labeled with CD14 MicroBeads. Then the cell suspension is loaded onto a MACS® Column which is placed in the magnetic field of a MACS Separator. The magnetically labeled CD14+ cells are retained in the column. The unlabeled cells run through, this cell fraction is depleted of CD14+ cells. After removal of the column from the magnetic field, the magnetically retained CD14+ cells can be eluted as the positively selected cell fraction. After centrifugation at 200×g for 10 min at room temperature the monocytes were harvested and used directly in binding assay or resuspended in freezing medium (10% DMSO, 90% FCS) at 1.0E+07 cells/ml and stored in liquid nitrogen.
(§9) 1×10⁵ CD14+ isolated human monocytes (50 μl/well) were put into 98 well-v bottom MTP in fresh culture medium and incubated with Redimune® NF Liquid for 15 min at RT to block unspecific binding. […] After washing and centrifugation MFI signals of stained cells were analyzed by BD Biosciences FACSCanto flow cytometer.

[19] = target: T10, cynomolgus TIM-3 on isolated cyno CD14+ …; test: flow cytometry, cyno CD14+ monocytes cyno1
Source text: as §6, §7

[20] = target: T13, huFc fused dimeric human Tim3-ECD (human, UniProt Q8TDQ0 22-202); test: SPR Biacore, antibody captured by anti-mouse IgG
T13 construct: also called huTim3Fc; bivalent Tim3
Procedure: as §4, §5

monomeric human Tim3-ECD [21] = target: T9, monomeric human Tim3-ECD; test: SPR Biacore, antibody captured by anti-mouse IgG
Procedure: as §4, §5

human TIM-3 on cells [22] = target: T11, human TIM-3 on cells; test: flow cytometry, human CD14+ monocytes donor1
Source text: as §8, §9

human TIM-3 on cells [23] = target: T11, human TIM-3 on cells; test: flow cytometry, human CD14+ monocytes donor3
Source text: as §8, §9

[24] = target: T10, cynomolgus TIM-3 on isolated cyno CD14+ …; test: flow cytometry, cyno CD14+ monocytes cyno2
Source text: as §6, §7

human TIM-3 on cells [25] = target: T11, human TIM-3 on cells; test: cell-based or functional assay; remark: listed apart in the source
[26] = target: T13, huFc fused dimeric human Tim3-ECD; test: SPR Biacore, bivalent Tim3
Procedure: as §4, §5

[27] = target: T6, human FolR2 on transiently transfected …; test: flow cytometry on HEK cells transiently transfected with human FolR2, anti-human secondary antibody; concentration not given; remark: listed apart in the source
human FolR1 on cells [28] = target: T7, human FolR1 on cells; test: flow cytometry on HeLa cells (human FolR1), fluorescently labeled anti-human secondary antibody; remark: listed apart in the source
Procedure: as §2, §3

human FolR1 on cells [29] = target: T7, human FolR1 on cells; test: as above; remark: listed apart in the source
Procedure: as §2, §3

T7 sequence (P15328 25-234 limits assumed): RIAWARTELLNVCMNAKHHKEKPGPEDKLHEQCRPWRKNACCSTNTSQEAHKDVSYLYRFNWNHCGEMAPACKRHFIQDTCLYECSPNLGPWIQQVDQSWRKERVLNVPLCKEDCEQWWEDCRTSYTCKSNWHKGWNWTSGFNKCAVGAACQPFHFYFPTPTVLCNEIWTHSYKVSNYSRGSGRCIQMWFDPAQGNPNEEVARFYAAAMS
T6 sequence (P14207 17-230 limits assumed): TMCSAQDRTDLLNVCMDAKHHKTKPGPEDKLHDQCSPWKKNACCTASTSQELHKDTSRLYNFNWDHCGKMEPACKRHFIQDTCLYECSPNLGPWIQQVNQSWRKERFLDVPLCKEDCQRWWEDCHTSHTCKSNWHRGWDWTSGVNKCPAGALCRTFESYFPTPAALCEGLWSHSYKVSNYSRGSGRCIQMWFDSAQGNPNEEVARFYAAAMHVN
T8 sequence (P15328 other isoform, or with tags, fused parts or gaps limits assumed): as the sequence (P15328 25-234 limits assumed) above, with I2T, W4R, R37K, Q117R, A146P, H171Y counted along it

B1: 36F2 Fab (Fab, V domains shown)
VH: QVQLVQSGAEVKKPGASVKVSCKASGYTFTSYYMHWVRQAPGQGLEWMGIINPSGGSTSYAQKFQGRVTMTHDTSTSTVYMELSSLRSEDTAVYYCARSFFTGFHLDYWGQGTLVTVSS
VL: EIVLTQSPGTLSLSPGERATLSCRASQSVSSSYLAWYQQKPGQAPRLLIYGASSRATGIPDRFSGSGSGTDFTLTISRLEPEDFAVYYCQQYTNEHYYTFGQGTKVEIK
[1]
  Kd: 1810 nM
[2]
  Kd: 737 nM
[3]
  Kd: 1640 nM
[4]
  binding result: no binding
[5]
  binding result: no binding

B2: 9D11 IgG (antibody, V domains shown)
VH: QVQLVQSGAEVKKPGASVKVSCKASGYTFTSYYMHWVRQAPGQGLEWMGIINPSGGPTSYAQKFQGRVTMTRDTSTSTVYMELSSLRSEDTAVYYCARGDFAWLDYWGQGTLVTVSS
VL: not shown
notes: human IgG1
[6]
  binding result: no binding
Human FolR1 on cells [7]
  binding result: binds
[8]
  binding result: binds
[9]
  binding result: no binding (tested: 500 nM)
[10]
  binding result: no binding (tested: 500 nM)
[11]
  binding result: no binding (tested: 500 nM)

B3: 9D11 Fab (Fab, V domains shown)
VH: B2 VH
VL: not shown
[1]
  Kd: 8.64 nM
[2]
  binding result: no binding
[3]
  Kd: 5.29 nM
[4]
  binding result: no binding
[5]
  binding result: no binding

B4: 14E4 IgG (antibody, V domains shown)
VH: not shown
VL: EIVLTQSPGTLSLSPGERATLSCRASQSVSSSYLAWYQQKPGQAPRLLIYGASSRATGIPDRFSGSGSGTDSTLTISRLEPEDFAVYYCQQPTSSPITFGQGTKVEIK
notes: human IgG1
[12]
  binding result: no binding (tested: 500 nM)
[13]
  binding result: no binding (tested: 500 nM)
[10]
  binding result: no binding (tested: 500 nM)
[11]
  binding result: no binding (tested: 500 nM)

B5: 14E4 Fab (Fab, V domains shown)
VH: not shown
VL: B4 VL
[1]
  binding result: no binding
[3]
  binding result: no binding
[4]
  binding result: no binding
[5]
  binding result: no binding

B6: Tim3_0026 (antibody, V domains shown)
VH: QIQLVQSGPELKKPGETVKISCKASGYTFTDYSMHWVKQAPGRGLKWMGYINTETYEPTFGADFKGRFAFSLDTSATTAYLQINSLKTEDTATFFCGGGGYPAYWGQGTVVIVSA
VL: DVLMTQTPLSLPVSLGDQASISCRSSRTILHSSGNTYLEWYLQKPGQSPKLLIYKVSNRFSGVPDRFSGSGSGTDFTLNISRVEAEDLGVYYCFQDSHVPFTFGTGTKLEIK
Monomeric human Tim3-ECD [14]
  Kd: 6.2 nM
[15]
  MFI: 197 MFI
Human TIM-3 on cells [16]
  EC50: 0.069 µg/mL
Tim3-ECD-His-Biotin
  EC50: 0.047 µg/mL
Human TIM-3 on cells [17]
  IFN-gamma release in MLR at 1 µg/ml, % of IL-2 control: 18%
  IFN-gamma release in MLR at 10 µg/ml, % of IL-2 control: 16%
  IFN-gamma release in MLR at 40 µg/ml, % of IL-2 control: 25%
Human TIM-3 on cells [18]
  specific binding MFI: 1020 MFI
[19]
  MFI: 137 MFI
[20]
  Kd: 1.52 nM
Monomeric human Tim3-ECD [21]
  Kd: 6.23 nM
Human TIM-3 on cells [22]
  specific binding MFI: 1660 MFI
Human TIM-3 on cells [23]
  specific binding MFI: 900 MFI
[24]
  MFI: 184 MFI
Human TIM-3 on cells [25]
  IC50 cytotoxicity (anti-mFc Fab-PE24 sandwich), RPMI-8226: > 64 nM
[26]
  Kd: 1.5 nM

B7: Tim3_0030 (antibody, V domains shown)
VH: QIQLVQSGPELKKPGETVKISCKASGYPFSEYSIHWVKQAPGKGLKWMVYVNTETGQPIVGDDFRGRFVLSLETSASTAYLQINNLKNEDTATYFCGGGGYPAYWGQGTLVTVSA
VL: B6 VL with T28S, L30V
[15]
  MFI: 144 MFI
Human TIM-3 on cells [17]
  IFN-gamma release in MLR at 1 µg/ml, % of IL-2 control: 3%
  IFN-gamma release in MLR at 10 µg/ml, % of IL-2 control: 4%
  IFN-gamma release in MLR at 40 µg/ml, % of IL-2 control: 14%
Human TIM-3 on cells [18]
  specific binding MFI: 419 MFI
[19]
  MFI: 119 MFI
[20]
  Kd: 1.28 nM
Monomeric human Tim3-ECD [21]
  Kd: 3.11 nM
Human TIM-3 on cells [22]
  specific binding MFI: 1410 MFI
Human TIM-3 on cells [23]
  specific binding MFI: 466 MFI
[24]
  MFI: 163 MFI
Human TIM-3 on cells [25]
  IC50 cytotoxicity (anti-mFc Fab-PE24 sandwich), RPMI-8226: > 64 nM

B8: 19E5 IgG (antibody, V domains shown)
VH: QVQLVQSGAEVKKPGASVKVSCKASGYTFTSYYMHWVRQAPGQGLEWMGIINPSGGSTSYAQKFQGRVTMTRDTSTSTVYMELSSLRSEDTAVYYCARGEWRRYTSFDYWGQGTLVTVSS
VL: QAVVTQEPSLTVSPGGTVTLTCGSSTGAVTTSNYANWVQEKPGQAFRGLIGGTNKRAPGTPARFSGSLLGGKAALTLSGAQPEDEAEYYCALWYSNLWVFGGGTKLTVL
notes: human IgG1
[27]
  binding result: binds
Human FolR1 on cells [28]
  EC50 (read off the curve): ~2 µg/mL

B9: 20G6 IgG (antibody, V domains shown)
VH: B8 VH with R102I, T105Y, S106H
VL: B8 VL
notes: human IgG1
Human FolR1 on cells [29]
  binding result: binds
[12]
  binding result: no binding (tested: 500 nM)
[13]
  binding result: no binding (tested: 500 nM)
[10]
  binding result: no binding (tested: 500 nM)
[11]
  binding result: no binding (tested: 500 nM)
